Laboratory results published in patent US20090175786A1.

Tests used:
[1] = target: neuromedin-B preferring receptor (NMB-R), human (human) (UniProt P28336); test: displacement of 125I-universal ligand, human tumour sections
[2] = target: gastrin releasing peptide receptor (GRP-R), human (human) (UniProt P30550); test: as above
gastrin releasing peptide receptor (GRP-R), human (human), sequence (P30550 whole entry): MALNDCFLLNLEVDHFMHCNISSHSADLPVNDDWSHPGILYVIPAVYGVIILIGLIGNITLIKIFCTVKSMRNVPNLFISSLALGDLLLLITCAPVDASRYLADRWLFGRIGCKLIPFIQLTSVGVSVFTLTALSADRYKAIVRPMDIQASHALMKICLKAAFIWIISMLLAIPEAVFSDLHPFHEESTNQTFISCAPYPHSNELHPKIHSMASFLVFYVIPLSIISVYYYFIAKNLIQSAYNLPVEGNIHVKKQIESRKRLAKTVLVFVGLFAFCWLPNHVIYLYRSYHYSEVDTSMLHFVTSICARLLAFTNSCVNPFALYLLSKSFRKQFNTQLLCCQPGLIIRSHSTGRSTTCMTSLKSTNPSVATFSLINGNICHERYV

neuromedin-B preferring receptor (NMB-R), human (human), sequence (P28336 whole entry): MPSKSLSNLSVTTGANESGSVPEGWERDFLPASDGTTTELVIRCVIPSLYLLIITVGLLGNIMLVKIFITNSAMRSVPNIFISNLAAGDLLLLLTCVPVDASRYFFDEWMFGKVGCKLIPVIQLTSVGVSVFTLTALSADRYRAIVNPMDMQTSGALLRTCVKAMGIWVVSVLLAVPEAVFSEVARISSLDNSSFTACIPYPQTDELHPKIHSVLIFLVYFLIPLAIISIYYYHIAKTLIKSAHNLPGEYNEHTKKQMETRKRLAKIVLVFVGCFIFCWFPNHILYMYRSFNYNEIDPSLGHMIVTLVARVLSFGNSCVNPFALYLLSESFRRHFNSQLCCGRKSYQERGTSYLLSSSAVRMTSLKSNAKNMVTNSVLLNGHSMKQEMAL

“[DTyr^6, βAla^11, Phe^13, Nle^14]-BBN(6-14) (peptide)” was tested, and the IC50 [1] was 0.8 nM and the IC50 [2] was 0.7 nM.
